This is an account of results in PMC11719849, “Allosteric modulation of the Lon protease via ssDNA binding and local charge changes” (The Journal of Biological Chemistry, 2024).

Substrate in this data set: Nc1ncnc2c1ncn2[C@@H]1O[C@H](COP(=O)(O)OP(=O)(O)OP(=O)(O)O)[C@@H](O)[C@H]1O
Nature of the data set: coupled NADH fluorescence ATPase assay. Type of data set: biochemical, Caulobacter vibrioides. To be noted: no ssDNA, FITC-casein present, 0.1 μM Lon6, Mg2+, pH 8.0, 30 °C. The source says: coupled NADH fluorescence ATPase assay on Lon

B1: Lon (Caulobacter vibrioides NA1000) (protein)
chain: MSELRTLPVLPLRDIVVFPHMVVPLFVGRDKSVRALEEVMRGDKQILLVTQKNSADDDPAPGDIFEVGVLATVLQLLKLPDGTVKVLVEGKARAAVVSFTDQESYYEAQIGEVSEDDGAGPEAEALSRAVVEQFENYVKLNKKVPPEALASIPQIAEPGKLADSIAAHLSVKIGDKQNLLEIFDVVKRLEKVFALMEGEISVLQVEKKIRSRVKRQMEKTQREYYLNEQMKAIQRELGDPDDARDELIDLEKRIKKTKLSKEARTKAESELKKLRNMSPMSAESTVVRNYLDWLLSIPWGKAKTKKIDLVESEGILDADHYGLEKVKERILEYLAVQARTNSLKGPILCLVGPPGVGKTSLGKSIAKATGREFVRMSLGGVRDEAEIRGHRRTYIGSMPGKVVQSMKKAKTTNAFVLLDEIDKMGSDYRGDPASALLEVLDPSQNSTFGDHYLEVDYDLSQVMFVTTANSLNMPQPLLDRMEIIRIPGYTEDEKLEIAKRHILPKLAKDHGLKPAEFIVPDKAIRDLIRYYTREAGVRSLERELGALARKTVRDLAREKVASITIDDERLAKYAGVKKYRYGETDEVDQVGIVTGLAWTEFGGDILTIEAVKMPGKGRMQITGNLKDVMKESIAAANSYVRSRALQFGIKPPVFEKTDVHIHVPDGATPKDGPSAGIAMALAMVSVLTGIPIRKDIAMTGEITLRGRVTAIGGLKEKLLAALRSGVKTVLIPQENEKDLADVPQTVKDGLEIIPVSTVDEVLKHALTGPLTPVEWNEAEEPITTSAKKDDGDSDAMLTH
notes: Caulobacter Lon from pBAD33-Lon, purified on hydroxyapatite and MonoQ, no tag mentioned
With B1, the Km (Hill fit n 1.2, brackets 95% CI) was 92[67–135] μM.

B2: Lon (Caulobacter vibrioides NA1000; K301A/K303A/K305A/K306A) (protein)
chain: MSELRTLPVLPLRDIVVFPHMVVPLFVGRDKSVRALEEVMRGDKQILLVTQKNSADDDPAPGDIFEVGVLATVLQLLKLPDGTVKVLVEGKARAAVVSFTDQESYYEAQIGEVSEDDGAGPEAEALSRAVVEQFENYVKLNKKVPPEALASIPQIAEPGKLADSIAAHLSVKIGDKQNLLEIFDVVKRLEKVFALMEGEISVLQVEKKIRSRVKRQMEKTQREYYLNEQMKAIQRELGDPDDARDELIDLEKRIKKTKLSKEARTKAESELKKLRNMSPMSAESTVVRNYLDWLLSIPWGAAATAAIDLVESEGILDADHYGLEKVKERILEYLAVQARTNSLKGPILCLVGPPGVGKTSLGKSIAKATGREFVRMSLGGVRDEAEIRGHRRTYIGSMPGKVVQSMKKAKTTNAFVLLDEIDKMGSDYRGDPASALLEVLDPSQNSTFGDHYLEVDYDLSQVMFVTTANSLNMPQPLLDRMEIIRIPGYTEDEKLEIAKRHILPKLAKDHGLKPAEFIVPDKAIRDLIRYYTREAGVRSLERELGALARKTVRDLAREKVASITIDDERLAKYAGVKKYRYGETDEVDQVGIVTGLAWTEFGGDILTIEAVKMPGKGRMQITGNLKDVMKESIAAANSYVRSRALQFGIKPPVFEKTDVHIHVPDGATPKDGPSAGIAMALAMVSVLTGIPIRKDIAMTGEITLRGRVTAIGGLKEKLLAALRSGVKTVLIPQENEKDLADVPQTVKDGLEIIPVSTVDEVLKHALTGPLTPVEWNEAEEPITTSAKKDDGDSDAMLTH
notes: as for B1
For B2, where the note is “Lon4A, Hill fit n 1.2, brackets 95% CI”, the Km was 206[134–707] μM.

B3: Lon (Caulobacter vibrioides NA1000; K301E/K303E/K305E/K306E) (protein)
chain: MSELRTLPVLPLRDIVVFPHMVVPLFVGRDKSVRALEEVMRGDKQILLVTQKNSADDDPAPGDIFEVGVLATVLQLLKLPDGTVKVLVEGKARAAVVSFTDQESYYEAQIGEVSEDDGAGPEAEALSRAVVEQFENYVKLNKKVPPEALASIPQIAEPGKLADSIAAHLSVKIGDKQNLLEIFDVVKRLEKVFALMEGEISVLQVEKKIRSRVKRQMEKTQREYYLNEQMKAIQRELGDPDDARDELIDLEKRIKKTKLSKEARTKAESELKKLRNMSPMSAESTVVRNYLDWLLSIPWGEAETEEIDLVESEGILDADHYGLEKVKERILEYLAVQARTNSLKGPILCLVGPPGVGKTSLGKSIAKATGREFVRMSLGGVRDEAEIRGHRRTYIGSMPGKVVQSMKKAKTTNAFVLLDEIDKMGSDYRGDPASALLEVLDPSQNSTFGDHYLEVDYDLSQVMFVTTANSLNMPQPLLDRMEIIRIPGYTEDEKLEIAKRHILPKLAKDHGLKPAEFIVPDKAIRDLIRYYTREAGVRSLERELGALARKTVRDLAREKVASITIDDERLAKYAGVKKYRYGETDEVDQVGIVTGLAWTEFGGDILTIEAVKMPGKGRMQITGNLKDVMKESIAAANSYVRSRALQFGIKPPVFEKTDVHIHVPDGATPKDGPSAGIAMALAMVSVLTGIPIRKDIAMTGEITLRGRVTAIGGLKEKLLAALRSGVKTVLIPQENEKDLADVPQTVKDGLEIIPVSTVDEVLKHALTGPLTPVEWNEAEEPITTSAKKDDGDSDAMLTH
notes: as for B1
Regarding B3, where the note is “Lon4E, Hill fit n 1.6, brackets 95% CI”, the Km is 28[23–28] μM.
